# B1: Pistol ribozyme (parent)
# chain: GGGUCGUUGUUCCAUAAUCGCGUGGAUAUGGCACGCAAGUUUCUACCGGGCACCGUAAAUGUCCGACUGGAGCCGUUCGGGCGGCUAUAAACAGACCUCAGGCCCGAAGCGUGGCGGCACCUGCCGCCGGUGGUAAAAAAGAUCGGAAGAGCACACGUCU
# Variants of: B1
# Assay: aptazyme ON/OFF ratio, guanine; higher = stronger switching; co-transcriptional cleavage with and without guanine
row,Variant,aptazyme ON/OFF ratio
1,U7G U8A G9C U10C U11A C12U C13U,1.03
2,U7G U8A G9A U10G U11A C12U C13U,1.09
3,U7G U8A G9A U10G U11A C12U C13G,1.06
4,U7G U8A G9A U10G U11A C12U C13A,1.18
5,U7G U8A G9A U10C U11G C13U,1.09
6,U7G U8A G9A U10C U11G C13G,1.15
7,U7G U8A G9A U10C U11G C13A,1.14
8,U7G U8A G9A U11A C12A C13U,1.21
9,U7G U8A G9A U11A C12A C13G,1.08
10,U7G U8A G9A U11A C12A C13A,1.16
11,U7G U8A G9A U10G C12A,1.32
12,U7G U8A G9A U10G C12U,1.52
13,U7G U8A G9A U10G C12G,1.09
14,U7G U8A G9A U10C U11G C12A C13U,1.13
15,U7G U8A G9A U10C U11G C12A C13A,1.07
16,U7G U8A G9A U10C U11G C12A C13G,1.07
17,U7G U8A G9A U10C C12G C13A,1.11
18,U7G U8A G9A U10C C12G C13G,1.11
19,U7G U8A G9A U10C C12G C13U,1.28
20,U7G U8A G9C U10C U11C C12A C13G,1
21,U7G U8A G9C U10C U11C C12A C13U,1.03
22,U7G U8A G9C U10C U11C C12A C13A,1.05
23,U7G U8A G9A U10A U11G C12A C13G,1.06
24,U7G U8A G9A U10A U11G C12A C13A,1.07

row,Variant,aptazyme ON/OFF ratio
1,U7G U8A G9A U10A U11G C12A C13U,1.07
2,U7G U8A G9A U10C U11A C12G C13A,1.11
3,U7G U8A G9A U10C U11A C12G C13G,1.07
4,U7G U8A G9A U10C U11A C12G C13U,1.12
5,U7G U8A G9A U10A U11C C12U C13U,1.11
6,U7G U8A G9A U10A U11G C12U C13A,1.07
7,U7G U8A G9A U10A U11G C12U C13G,1.24
8,U7G U8A G9A U10A U11G C12U C13U,1.15
9,U7G U8A G9A U10G,1.49
10,U7G U8A G9A U10C,2.73
11,U7G U8A G9C,1.12
12,U7G U8A G9C U10C U11C C12U C13G,1.04
13,U7G U8A G9C U10C U11C C12U C13A,1.02
14,U7G U8A G9C U10C U11C C12U C13U,1.01
15,U7G U8A G9A U10G U11G C12U C13U,1.17
16,U7G U8A G9A U10G U11G C12U C13A,1.4
17,U7G U8A G9A U10G U11G C12U C13G,1.18
18,U7G U8A G9C U10A C12U C13A,1.03
19,U7G U8A G9C U10A C12U C13G,0.956
20,U7G U8A G9C U10A C12U C13U,1.05
21,U7G U8A G9C U10C U11C C12G,1.03
22,U7G U8A G9C U10C U11C C12U,1.03
23,U7G U8A G9C U10C U11C C12A,1.04
24,U7G U8A G9C U10A U11G,1.05

row,Variant,aptazyme ON/OFF ratio
1,U7G U8A G9C U10A U11C,1.06
2,U7G U8A G9C U10A U11A,1.09
3,U7G U8A G9A U10G U11G C12A,1.14
4,U7G U8A G9A U10G U11G C12U,1.48
5,U7G U8A G9A U10G U11G C12G,1.24
6,U7G U8A G9A U10G U11A,1.01
7,U7G U8A G9A U10G U11C,1.03
8,U7G U8A G9A U10G U11G,1.07
9,U7G U8A G9C U10C U11A C12A,1.03
10,U7G U8A G9C U10C U11A C12U,1.07
11,U7G U8A G9C U10C U11A C12G,1.05
12,U7G U8A G9A U10A U11G C12G C13U,1.17
13,U7G U8A G9A U10A U11G C12G C13A,1.1
14,U7G U8A G9A U10A U11G C12G C13G,1.12
15,U7G U8A G9C U10C C12G C13G,1.01
16,U7G U8A G9C U10C C12G C13U,1.07
17,U7G U8A G9C U10C C12G C13A,1.14
18,U7G U8A G9A U10C U11C C12A C13U,1.08
19,U7G U8A G9A U10C U11C C12A C13A,1.07
20,U7G U8A G9A U10C U11C C12A C13G,1.25
21,U7G U8A G9A U10G U11C C12G C13G,1.04
22,U7G U8A G9A U10G U11C C12G C13U,1.11
23,U7G U8A G9A U10G U11C C12G C13A,1.1
24,U7G U8A G9A U10G U11A C13G,1.06

row,Variant,aptazyme ON/OFF ratio
1,U7G U8A G9A U10G U11A C13A,1.06
2,U7G U8A G9A U10G U11A C13U,1.03
3,U7G U8A G9C U10C,2.1
4,U7G U8A G9C U10A,1.07
5,U7G U8A G9C U10A U11C C13U,1.04
6,U7G U8A G9C U10A U11C C13A,1.04
7,U7G U8A G9C U10A U11C C13G,1.04
8,U7G U8A G9A U11G C12U,1.44
9,U7G U8A G9A U11G C12A,1.08
10,U7G U8A G9A U11G C12G,1.41
11,U7G U8A G9A U10C C13U,1.13
12,U7G U8A G9A U10C C13A,1.09
13,U7G U8A G9A U10C C13G,1.07
14,U7G U8A G9C U10C C13U,1.04
15,U7G U8A G9C U10C C13A,1.01
16,U7G U8A G9C U10C C13G,1.01
17,U7G U8A G9A U10G U11A C12A C13U,1.07
18,U7G U8A G9A U10G U11A C12A C13G,1.16
19,U7G U8A G9A U10G U11A C12A C13A,1.04
20,U7G U8A G9C U10C U11G C12G C13U,1.02
21,U7G U8A G9C U10C U11G C12G C13A,1.02
22,U7G U8A G9C U10C U11G C12G C13G,1.02
23,U7G U8A G9C U10A U11C C12G,1.05
24,U7G U8A G9C U10A U11C C12U,1.04

row,Variant,aptazyme ON/OFF ratio
1,U7G U8A G9C U10A U11C C12A,1.05
2,U7G U8A G9A U10C U11G C12G,1.32
3,U7G U8A G9A U10C U11G C12U,1.28
4,U7G U8A G9A U10C U11G C12A,1.04
5,U7G U8A G9A U10G C12A C13A,1.18
6,U7G U8A G9A U10G C12A C13U,1.37
7,U7G U8A G9A U10G C12A C13G,1.06
8,U7G U8A G9C U10A U11A C12A C13U,1.02
9,U7G U8A G9C U10A U11A C12A C13G,1.03
10,U7G U8A G9C U10A U11A C12A C13A,1.04
11,U7G U8A G9C U10A U11A C13U,1.04
12,U7G U8A G9C U10A U11A C13G,1.04
13,U7G U8A G9C U10A U11A C13A,1.05
14,U7G U8A G9C U10A U11G C12A C13A,1.05
15,U7G U8A G9C U10A U11G C12A C13U,1.04
16,U7G U8A G9C U10A U11G C12A C13G,1.05
17,U7G U8A G9C U10A U11C C12A C13G,1.01
18,U7G U8A G9C U10A U11C C12A C13U,1.03
19,U7G U8A G9C U10A U11C C12A C13A,1.04
20,U7G U8A G9C U10A U11A C12G C13G,1.01
21,U7G U8A G9C U10A U11A C12G C13U,1.02
22,U7G U8A G9C U10A U11A C12G C13A,1.04
23,U7G U8A G9A U10A U11G,1.28
24,U7G U8A G9A U10G U11C C13U,1.05

row,Variant,aptazyme ON/OFF ratio
1,U7G U8A G9A U10G U11C C13G,1.08
2,U7G U8A G9A U10G U11C C13A,1.09
3,U7G U8A G9A U11C C12U,1.18
4,U7G U8A G9A U11C C12A,1.17
5,U7G U8A G9A U11C C12G,1.21
6,U7G U8A G9C C12A C13A,1.04
7,U7G U8A G9C C12A C13U,0.986
8,U7G U8A G9C C12A C13G,1.03
9,U7G U8A G9A U10G C12U C13G,1.35
10,U7G U8A G9A U10G C12U C13U,1.13
11,U7G U8A G9A U10G C12U C13A,1.27
12,U7G U8A G9A U10C U11C C12U C13A,1.08
13,U7G U8A G9A U10C U11C C12U C13U,1.03
14,U7G U8A G9A U10C U11C C12U C13G,1.02
15,U7G U8A G9C U10A U11A C12U C13A,1.04
16,U7G U8A G9C U10A U11A C12U C13G,1.05
17,U7G U8A G9C U10A U11A C12U C13U,1.05
18,U7G U8A G9C C13G,1.02
19,U7G U8A G9C C13U,1.04
20,U7G U8A G9C C13A,1.04
21,U7G U8A G9A U11C C12A C13G,1.12
22,U7G U8A G9A U11C C12A C13A,1.19
23,U7G U8A G9A U11C C12A C13U,1.1
24,U7G U8A G9A U10G U11G C12A C13A,1.06

row,Variant,aptazyme ON/OFF ratio
1,U7G U8A G9A U10G U11G C12A C13G,1.14
2,U7G U8A G9A U10G U11G C12A C13U,1.17
3,U7G U8A G9C U10C U11G C12A C13U,1.01
4,U7G U8A G9C U10C U11G C12A C13A,1.02
5,U7G U8A G9C U10C U11G C12A C13G,1
6,U7G U8A G9C U10C C12U C13U,1.01
7,U7G U8A G9C U10C C12U C13A,1.04
8,U7G U8A G9C U10C C12U C13G,1.01
9,U7G U8A G9A U10A U11C C13A,1.1
10,U7G U8A G9A U10A U11C C13U,1.05
11,U7G U8A G9A U10A U11C C13G,1.08
12,U7G U8A G9A U10C C12G,1.15
13,U7G U8A G9A U10C C12A,1.1
14,U7G U8A G9A U10C C12U,1.09
15,U7G U8A G9A U10C C12U C13G,1.07
16,U7G U8A G9A U10C C12U C13U,1.12
17,U7G U8A G9A U10C C12U C13A,1.08
18,U7G U8A G9A U10A U11G C13G,1.07
19,U7G U8A G9A U10A U11G C13A,1.14
20,U7G U8A G9A U10A U11G C13U,1.16
21,U7G U8A G9C U10C U11G C12A,1.08
22,U7G U8A G9C U10C U11G C12U,1.12
23,U7G U8A G9C U10C U11G C12G,1.03

# Source: the RNAGym collection of RNA variant scans (doi:10.1021/acssynbio.7b00057)
